In test [1] the target is C4b (Complement Tech) (UniProt P0C0L4). Briefly: SPR (Biacore 8K), His-tagged receptor captured by anti-His on CM5, C4b analyte 31.25-2000 nM, steady state affinity.
Test [2] shares this target. Briefly: BLI (GatorPrime), His-tagged protein on Ni-NTA probe, ligand in 7-point dilution series.
Test [3] shares this target. Briefly: BLI (GatorPrime), ratio of KD to that of rhCR1 for C4b.
The target is the same in test [4]. Briefly: SPR (Biacore 8K), His-tagged fusion protein captured by anti-His on CM5, C4b analyte 62.5-2000 nM, steady state affinity.
The target of test [5] is T1, iC3b (Complement Tech) (UniProt P01024 23-667; P01024 749-1303; P01024 1321-1663, limits assumed).
T1 construct: iC3b is a multi-chain fragment of C3
Briefly: BLI (GatorPrime), His-tagged protein on Ni-NTA probe, ligand in 7-point dilution series. The method, then:
The binding kinetics of CR2-CR1 fusion proteins, human CR1, and human CR2 to their respective ligands were determined using biolayer interferometry (BLI) with a GatorPrime instrument (Gator Bio). Recombinant His-tagged human CR1 (R&D Systems), human CR2 (R&D Systems), or CR2-CR1 fusion proteins (GenScript) were immobilized onto Ni-NTA probes, and the response signals from the protein-loaded probes binding to C3d, iC3b, C3b, or C4b (Complement Tech) in a 7-point dilution series were measured for a 300 second association step, followed by a 300 second dissociation step in assay buffer. To reduce assay background/noise due to non-specific complement protein binding, a double reference was applied using a 0 nM ligand condition (Sample or Reference Probe Blank) and a series of Ni-NTA probes not loaded with protein (Reference Probe) according to the following equation: Sample Response=(Sample Signal−Reference Probe Signal)−(Sample Blank Signal−Reference Probe Blank Signal). The binding affinity constant, KD, and association/dissociation rate constants, kₒₙ/koff, for all binding interactions were calculated using the GatorOne software (Gator Bio).

Test [6] addresses T1, iC3b (Complement Tech). Briefly: SPR (Biacore 8K), His-tagged receptor captured by anti-His on CM5, iC3b analyte 19.5-1250 nM, steady state affinity. The method, then: The binding of recombinant human CR1, recombinant human CR2, and recombinant CR2CR1 #1 (SEQ ID NO: 22), and recombinant CR2CR1 #7 (SEQ ID NO: 12) protein to their respective ligands C3b, C4b, iC3b, and/or C3d was analyzed using a Biacore 8K SPR system (Cytiva). Histidine-tagged complement receptors and fusion proteins were immobilized onto Series S Sensor Chip CM5 using a His Antibody Capture Kit, with capture levels of 60-470 RU. C3b, C4b, iC3b, and C3d were prepared in 1×HBS-EP buffer (10 mM HEPES, 150 mM NaCl, 3 mM EDTA, and 0.05% v/v Surfactant P20), pH 7.4, at concentrations ranging from 3-16000 nM, and the analytes were injected at a flow rate of 30 μL/min. Binding at 25° C. was monitored for 150 seconds, followed by a dissociation phase of 300 seconds. Chip sensors were regenerated for 60 seconds with 10 mM glycine-HCl buffer, pH 1.5. The data were processed and analyzed with Biacore Insight Evaluation Software; a 1:1 binding model (C3b analyte) or steady state affinity (C4b, iC3b, C3d analytes) was used to calculate the apparent KD value and other kinetic parameters.

T1 sequence (P01024 23-667 limits assumed, chain 1 of 3): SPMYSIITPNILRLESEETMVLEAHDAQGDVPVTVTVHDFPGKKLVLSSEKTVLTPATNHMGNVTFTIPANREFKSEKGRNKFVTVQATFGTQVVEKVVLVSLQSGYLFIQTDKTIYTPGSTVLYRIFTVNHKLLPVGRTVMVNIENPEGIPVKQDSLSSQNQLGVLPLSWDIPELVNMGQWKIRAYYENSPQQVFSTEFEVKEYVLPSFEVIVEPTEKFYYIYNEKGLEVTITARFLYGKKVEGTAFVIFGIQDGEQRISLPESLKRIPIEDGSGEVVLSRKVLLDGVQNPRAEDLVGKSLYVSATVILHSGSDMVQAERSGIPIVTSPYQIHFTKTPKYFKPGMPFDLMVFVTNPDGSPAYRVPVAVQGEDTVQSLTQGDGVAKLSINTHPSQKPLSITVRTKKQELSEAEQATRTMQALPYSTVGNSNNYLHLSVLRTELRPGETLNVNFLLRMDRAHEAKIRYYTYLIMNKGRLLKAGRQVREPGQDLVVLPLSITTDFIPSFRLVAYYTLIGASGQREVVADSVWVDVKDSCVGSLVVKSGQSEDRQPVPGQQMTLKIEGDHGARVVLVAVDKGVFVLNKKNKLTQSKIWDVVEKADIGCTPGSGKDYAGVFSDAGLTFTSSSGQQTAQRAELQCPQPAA
T1 sequence (P01024 749-1303 limits assumed, chain 2 of 3): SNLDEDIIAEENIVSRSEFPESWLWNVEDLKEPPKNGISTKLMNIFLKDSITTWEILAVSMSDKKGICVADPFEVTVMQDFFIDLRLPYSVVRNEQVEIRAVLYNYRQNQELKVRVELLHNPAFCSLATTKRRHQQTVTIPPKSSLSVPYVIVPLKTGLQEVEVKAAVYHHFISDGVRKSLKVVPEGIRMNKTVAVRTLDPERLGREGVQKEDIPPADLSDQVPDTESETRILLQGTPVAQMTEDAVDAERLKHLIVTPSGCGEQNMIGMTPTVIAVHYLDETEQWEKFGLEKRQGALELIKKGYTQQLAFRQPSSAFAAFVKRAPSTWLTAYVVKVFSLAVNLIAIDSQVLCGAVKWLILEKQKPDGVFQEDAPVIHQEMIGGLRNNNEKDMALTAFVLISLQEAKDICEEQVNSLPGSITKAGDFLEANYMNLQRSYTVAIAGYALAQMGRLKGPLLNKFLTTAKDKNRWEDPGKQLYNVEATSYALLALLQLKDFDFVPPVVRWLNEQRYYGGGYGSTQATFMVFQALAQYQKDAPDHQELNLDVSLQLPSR
T1 sequence (P01024 1321-1663 limits assumed, chain 3 of 3): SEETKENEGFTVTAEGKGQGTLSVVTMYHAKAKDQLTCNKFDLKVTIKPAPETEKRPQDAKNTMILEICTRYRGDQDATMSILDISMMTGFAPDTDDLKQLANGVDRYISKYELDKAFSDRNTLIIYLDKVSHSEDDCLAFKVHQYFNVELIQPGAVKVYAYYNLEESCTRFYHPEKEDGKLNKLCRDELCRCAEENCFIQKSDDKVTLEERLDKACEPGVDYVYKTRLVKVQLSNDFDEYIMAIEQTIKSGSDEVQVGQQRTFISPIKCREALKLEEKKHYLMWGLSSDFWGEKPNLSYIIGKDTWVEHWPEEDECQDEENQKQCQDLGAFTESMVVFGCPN
Sequence of C4b (Complement Tech) (P0C0L4 20-1744): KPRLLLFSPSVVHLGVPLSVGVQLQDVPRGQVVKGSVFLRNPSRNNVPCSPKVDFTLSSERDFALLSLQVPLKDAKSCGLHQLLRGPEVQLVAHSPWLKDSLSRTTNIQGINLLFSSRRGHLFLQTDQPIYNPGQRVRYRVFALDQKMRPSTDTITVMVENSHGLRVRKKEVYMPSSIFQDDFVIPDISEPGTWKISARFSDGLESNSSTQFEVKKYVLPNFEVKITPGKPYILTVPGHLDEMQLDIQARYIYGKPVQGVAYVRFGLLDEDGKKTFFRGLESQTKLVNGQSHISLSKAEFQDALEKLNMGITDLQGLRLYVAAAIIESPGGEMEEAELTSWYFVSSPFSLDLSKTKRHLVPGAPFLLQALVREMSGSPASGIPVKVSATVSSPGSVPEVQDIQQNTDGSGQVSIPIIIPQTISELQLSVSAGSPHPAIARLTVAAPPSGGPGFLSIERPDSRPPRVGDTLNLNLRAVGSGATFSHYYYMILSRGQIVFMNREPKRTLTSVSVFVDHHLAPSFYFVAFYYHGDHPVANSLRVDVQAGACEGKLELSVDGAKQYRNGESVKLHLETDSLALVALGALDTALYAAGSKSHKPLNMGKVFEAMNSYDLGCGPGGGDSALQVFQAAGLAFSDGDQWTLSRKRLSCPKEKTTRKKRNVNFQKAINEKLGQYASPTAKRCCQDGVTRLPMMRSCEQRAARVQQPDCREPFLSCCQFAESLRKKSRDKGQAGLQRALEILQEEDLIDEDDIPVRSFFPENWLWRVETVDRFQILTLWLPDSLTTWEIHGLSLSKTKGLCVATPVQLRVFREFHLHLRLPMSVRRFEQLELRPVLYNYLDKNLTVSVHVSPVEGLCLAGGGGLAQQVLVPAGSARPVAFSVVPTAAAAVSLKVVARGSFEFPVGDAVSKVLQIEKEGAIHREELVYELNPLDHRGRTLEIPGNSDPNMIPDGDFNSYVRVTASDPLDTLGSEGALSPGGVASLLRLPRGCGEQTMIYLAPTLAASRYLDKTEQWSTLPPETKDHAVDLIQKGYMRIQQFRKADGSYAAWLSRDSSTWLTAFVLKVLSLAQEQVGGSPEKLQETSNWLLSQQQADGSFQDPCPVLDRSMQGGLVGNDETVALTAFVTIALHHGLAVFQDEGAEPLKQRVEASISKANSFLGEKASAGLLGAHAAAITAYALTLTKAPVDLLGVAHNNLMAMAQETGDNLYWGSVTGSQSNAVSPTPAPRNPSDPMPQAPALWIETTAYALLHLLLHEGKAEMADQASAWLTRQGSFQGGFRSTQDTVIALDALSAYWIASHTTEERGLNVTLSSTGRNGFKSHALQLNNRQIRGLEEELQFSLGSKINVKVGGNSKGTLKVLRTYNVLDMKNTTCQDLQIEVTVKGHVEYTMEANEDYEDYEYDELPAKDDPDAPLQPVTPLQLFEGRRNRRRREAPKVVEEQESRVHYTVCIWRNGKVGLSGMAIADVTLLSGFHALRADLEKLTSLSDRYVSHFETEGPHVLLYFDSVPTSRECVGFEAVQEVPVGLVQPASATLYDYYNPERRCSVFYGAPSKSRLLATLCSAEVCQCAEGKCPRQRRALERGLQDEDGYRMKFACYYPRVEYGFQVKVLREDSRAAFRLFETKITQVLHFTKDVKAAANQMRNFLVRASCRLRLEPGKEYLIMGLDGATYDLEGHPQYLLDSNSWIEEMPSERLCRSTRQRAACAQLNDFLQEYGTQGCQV

Molecule “Recombinant His-tagged human CR1 (R&D Systems) (from UniProt P17927 42-1971) (receptor)” had a Kd with C4b (Complement Tech) [1] of 3010 nM. In the test with C4b (Complement Tech) [2], this molecule returned a Kd of 13.2 nM, a koff of 0.000586 s⁻¹ and a kon of 44300 M⁻¹ s⁻¹.

For “recombinant CR2CR1 #1 (CR2-CR1 fusion protein, CR2 SCR1-4 fused to CR1 SCR1-10), His-tagged”, in the test with C4b (Complement Tech) [3], the KD vs. hCR1 KD (X (fold of hCR1 KD)) worked out at 0.94. In the test with C4b (Complement Tech) [2], this molecule displayed a Kd of 12.4 nM, a koff of 0.000694 s⁻¹ and a kon of 56000 M⁻¹ s⁻¹. The molecule also yielded a Kd with C4b (Complement Tech) [4] of 21100 nM.

For the molecule “recombinant CR2CR1 #7 (CR2-CR1 fusion protein, CR2 SCR1-4 fused to CR1 SCR1-4, 7-11, 14-17), His-tagged”, the KD vs. hCR1 KD (X (fold of hCR1 KD)) with C4b (Complement Tech) [3] was found to be 0.8. In addition, in the test with C4b (Complement Tech) [2], the Kd was determined as 10.5 nM, the koff was found to be 0.000663 s⁻¹ and the kon amounted to 63300 M⁻¹ s⁻¹.

B1: Recombinant His-tagged human CR2 (R&D Systems) (receptor, UniProt P20023 21-971, looked up)
chain: ISCGSPPPILNGRISYYSTPIAVGTVIRYSCSGTFRLIGEKSLLCITKDKVDGTWDKPAPKCEYFNKYSSCPEPIVPGGYKIRGSTPYRHGDSVTFACKTNFSMNGNKSVWCQANNMWGPTRLPTCVSVFPLECPALPMIHNGHHTSENVGSIAPGLSVTYSCESGYLLVGEKIINCLSSGKWSAVPPTCEEARCKSLGRFPNGKVKEPPILRVGVTANFFCDEGYRLQGPPSSRCVIAGQGVAWTKMPVCEEIFCPSPPPILNGRHIGNSLANVSYGSIVTYTCDPDPEEGVNFILIGESTLRCTVDSQKTGTWSGPAPRCELSTSAVQCPHPQILRGRMVSGQKDRYTYNDTVIFACMFGFTLKGSKQIRCNAQGTWEPSAPVCEKECQAPPNILNGQKEDRHMVRFDPGTSIKYSCNPGYVLVGEESIQCTSEGVWTPPVPQCKVAACEATGRQLLTKPQHQFVRPDVNSSCGEGYKLSGSVYQECQGTIPWFMEIRLCKEITCPPPPVIYNGAHTGSSLEDFPYGTTVTYTCNPGPERGVEFSLIGESTIRCTSNDQERGTWSGPAPLCKLSLLAVQCSHVHIANGYKISGKEAPYFYNDTVTFKCYSGFTLKGSSQIRCKADNTWDPEIPVCEKETCQHVRQSLQELPAGSRVELVNTSCQDGYQLTGHAYQMCQDAENGIWFKKIPLCKVIHCHPPPVIVNGKHTGMMAENFLYGNEVSYECDQGFYLLGEKKLQCRSDSKGHGSWSGPSPQCLRSPPVTRCPNPEVKHGYKLNKTHSAYSHNDIVYVDCNPGFIMNGSRVIRCHTDNTWVPGVPTCIKKAFIGCPPPPKTPNGNHTGGNIARFSPGMSILYSCDQGYLLVGEALLLCTHEGTWSQPAPHCKEVNCSSPADMDGIQKGLEPRKMYQYGAVVTLECEDGYMLEGSPQSQCQSDHQWNPPLAVCRSR
notes: Bought protein; also called rhCR2; hCR2; not shown: His tag
In the test with iC3b (Complement Tech) [5], B1 registered a Kd of 6.51 nM, a koff of 0.000965 s⁻¹ and a kon of 148000 M⁻¹ s⁻¹. Besides, the Kd in the test with iC3b (Complement Tech) [6] came to 439 nM.

The values above are taken from patent publication US20260152543A1 (KRIYA THERAPEUTICS, published 2026).
